Results on one protein are retold here after PMC9169775, “Structural conservation among variants of the SARS-CoV-2 spike postfusion bundle” (Proceedings of the National Academy of Sciences of the …, 2022).

This series concerns the molecule itself. The series can be described thus: SDS-PAGE with or without boiling (SDS-resistant oligomer); purified scaffolded HR1HR2 bundle and scaffold alone, with or without boiling.

B1: Dps4 from Nostoc punctiforme (NpDps4), scaffold alone (natural protein)
chain: ETQTLLRNFGNVYDNPVLLDRSVTAPVTEGFNVVLASFQALYLQYQKHHFVVEGSEFYSLHEFFNESYNQVQDHIHEIGERLDGLGGVPVATFSKLAELTCFEQESEGVYSSRQMVENDLAAEQAIIGVIRRQAAQAESLGDRGTRYLYEKILLKTEERAYHLSHFLAKDSLTLGFVQAA
notes: Dps4 from Nostoc punctiforme (NpDps4); Construct details in SI Appendix, Supplementary Notes; also called the scaffold alone; source: E. coli BL21(DE3), purified (Ni-NTA, SEC); copies: 12
As for B1, the “stoichiometry N” value is 12.

As a reminder, the stoichiometry N is the number of molecules, sites or subunits per partner or assembly.
